What all share (design): species or system mice
A short description of data set [1]: in vivo. To be noted: male, mouse, total radioactivity; for tissue uptake at 1 h: Tumour Uptake % ID/g 1 h pi; for tissue uptake at 18 h: Tumour Uptake % ID/g 18 h pi. As to the method: (§1) PET-CT imaging and Biodistribution. Male Balb/c nude mice (age 8.5 weeks) or Male NSG mice (age 12 weeks) were inoculated subcutaneously on the right flank with 6×10^6 LNCap cells in PBS:Matrigel (1:1). Mice were weighed and tumours measured twice weekly using electronic callipers. Tumour volume (mm^3) was calculated as length×width×height×π/6. Mice were assigned for imaging and biodistribution studies (tumour volumes: 85-450 mm3). ^89Zr-DFOSq-PSMA tracers were then administered intravenously by tail vein injection to 6 mice. At 1, 2, 4 and 18 hr post injection three mice were anaesthetised using isoflurane and placed on the imaging bed of a G8 PET/CT scanner (Perkin Elmer). A CT scan was performed and followed immediately by a 10 min static PET scan. PET images were reconstructed using the maximal likelihood and expectation maximization (ML-EM) algorithm. PET Images were analysed using VivoQuant (Invicro) and Tumour SUVmax or Tumour SUVmax/background average (TBR) determined. After imaging at 18 hr mice were euthanised and selected tissues were excised, weighed and counted using a Capintec (Captus 4000e) gamma counter. A separate cohort of 3 mice was harvested at 1 hr post injection for biodistribution analysis as above. The data was analysed using GraphPad Prism 7 and differences between tracers analysed using a t-test.
(§2) ^89Zr Labelled tracers: The ^89Zr radiolabelled PSMA tracers were injected intravenously via tail vein to LNCaP (human PSMA expressing prostate cancer cell line) tumour bearing mice. At 1, 2, 4 and 18 h post-injection the mice were anaesthetised with isoflurane and imaged over 10 min. The representative PET images of mice injected with ^89Zr radiolabelled PSMA tracers at 1 and 18 hr are shown in FIG. 1 and quantitation of the Tumour SUVmax for each tracer is shown in FIG. 2a. […] There was a trend for higher tumour SUVmax for (4) tracer compared to all other tracers at all time points. […] A comparison of tumour uptake values is shown in FIG. 2b and the tissue biodistribution data for the tracers at 1 and 18 hr is summarised in FIG. 3.
(§3) ^68Ga Labelled tracers: Representative PET images of mice injected with ^68Ga(1) and ^68Ga(4) are shown in FIG. 4 and quantitation of the tumour SUVmax is shown in FIG. 5a. […] Tumour uptake of ^68Ga(4) was 1.6 and 1.8 fold higher than ^68Ga(1) at 1 and 2 hr p.i., respectively. This is consistent with the biodistribution results where tumour % ID/g for ^68Ga(4) was higher than ^68Ga(1) at 1 hr (10.8±1.3 vs 6.5±0.4) and at 2.5 hr (8.6±1.0 vs 4.1±0.5) p.i. […] (6.5±0.4% ID/g at 1 hr vs 4.1±0.5% ID/g at 2.5 hr). In contrast, there was no significant change in ^68Ga(4) tumour retention at 1 and 2.5 p.i. (10.8±1.3% ID/g vs […], FIG. 5b).

Data set [2] has as its system LNCaP (human PSMA expressing prostate cancer cell line) tumour. To be noted: mouse, in vivo. On the procedure: as §1, §2, §3
Data set [3] has the same test system. The experiment in a line: in vivo. To be noted: mouse. On the procedure:
as §1, §2, §3

Data set [4] deals with AR42J (rat pancreatic cancer cell line) tumour. The experiment in a line: in vivo. The conditions noted are these: mouse. On the procedure:
(§4) PET-CT imaging and Biodistribution of Octreotate/tide Tracers. Female Balb/c nude mice (age 9 weeks) were inoculated subcutaneously on the right flank with 3×10^6 AR42J cells in PBS:Matrigel (1:1). Mice were weighed and tumours measured twice weekly using electronic callipers. Tumour volume (mm^3) was calculated as length^2×width/2. 12 mice were assigned for imaging and biodistribution studies (tumour volumes: 170-550 mm^3). DFOSqTIDE (2.5 MBq) and DFOSqTATE (2.2 MBq) were administered intravenously by tail vein injection to mice on. At 1, 2, 4 and 18 hr post injection three mice were anaesthetised using isoflurane and placed on the imaging bed of a G8 PET/CT scanner (Perkin Elmer). A CT scan was performed which was immediately followed by a 10 min static PET scan. PET images were reconstructed using the maximal likelihood and expectation maximization (ML-EM) algorithm. PET images were analysed using VivoQuant (Invicro) and Tumour SUVmax, Tumour SUVmax/background average (TBR) and Tumour SUVmax/liver average (TLR) determined. After imaging at 18 hr mice were euthanised and selected tissues were excised, weighed and counted using a Capintec (Captus 4000e) gamma counter. A separate cohort of 3 mice was harvested at 1 hr post injection for biodistribution analysis. The data was analysed using GraphPad Prism 7 and differences between tracers analysed using a t-test.
AR42J (rat pancreatic cancer cell line) tumour bearing Balb/c nude mice as described above were injected intravenously via tail vein injection with ^89ZrDFOSqTATE or ^89ZrDFOSqTIDE (2-3 MBq). At 1, 2, 4 and 18 h post-injection the mice were anaesthetised with isoflurane and imaged over 10 min. At 1 hr after injection of DFOSqTIDE and DFOSqTATE, uptake into kidney, tumour and liver was observed. Representative PET images of mice injected with DFOSqTIDE and DFOSqTATE are shown in FIG. 12 and quantitation of the tumour SUVmax for each radiotracer is summarised in FIG. 13a.
^68GaDFOSq-TIDE and ^68GaDFOSq-TATE tracers were injected (2-3 MBq, 1 μg, 0.5 nmol) intravenously via tail vein to AR42J (rat pancreatic cancer cell line) tumour bearing Balb/c nude mice. PET images were acquired at 1 and 2 h post-injection (FIGS. 15a and b). […] Quantification of the uptake in the images using Standard Uptake Value (SUVmax=radioactivity in a tissue/injected activity/BW) confirms the higher uptake for ^68GaDFOSq-TATE (1 h; SUVmax 1.8±0.2, compared to 1.21±0.20, FIG. 15c). The higher tumor uptake of ^68GaDFOSqTATE was also associated with a higher degree of tumor retention at 2 h post injection with only a 5% reduction in SUVmax whereas the tumor SUVmax for ^68GaDFOSqTIDE reduced by 30% ^68GaDFOSqTATE at 2 h post injection. Both tracers clear rapidly from the blood and there is low uptake in bone consistent with stable gallium-68 complexes as well as low uptake in muscle. Both tracers have significant uptake in the kidneys and bladder.

The nature of data set [5]: in vivo. The conditions noted are these: female, Balb/c nude, mouse, iv, total radioactivity. On the procedure: as §4, with “t-test. The high tumor uptake was confirmed by an ex vivo biodistribution study in the same mouse model where mice were injected with either ^68GaDFOSq-TIDE and ^68GaDFOSq-TATE (2-3 MBq, 1 μg, 0.5 nmol) and then euthanised at either 1 h or 2 h after administration. The amount of injected activity per gram of tissue (% IA/g) in the tumor and major organs was quantified (FIG. 16).” for “t-test.”

*1 amine or outer side, *2 acyl side, *3 side chain or, on linkers, in order; H or OH if unused. Where a SMILES comes first, the peptide text is derived from it. Bridges are numbered along the chain shown (N, C = ends). Side-chain parts run from the residue outwards. [ ]: non-standard residue; d: D form. The star is where a group is joined. X1 = O=C([C@@H](Cc1ccccc1)N(c1c(NCCCCCN(O)[*:3])c(=O)c1=O)[*:1])[*:2]; X2 = CC(=O)N(O)CCCCCNC(=O)CCC(=O)N(O)CCCCCN*; Suc = O=C(CCC(=O)[*:2])[*:1]

Data on eight compounds can be found in patent US20220363623A1, “IMAGING AND THERAPEUTIC COMPOSITIONS” (priority 2019, published 2022).

On to `CC(=O)N(O)CCCCCNC(=O)CCC(=O)N(O)CCCCCNC(=O)CCC(=O)N(O)CCCCCNc1c(NCCNC(=O)CN(CCN(CC(=O)O)CC(=O)Nc2ccc(C(=O)NCCCCC(NC(=O)NC(CCC(=O)O)C(=O)O)C(=O)O)cc2)CC(=O)O)c(=O)c1=O` (stereo not shown) [(2), DFOSq-EDTA-PSMA ligand], for which, in data set [1] (iv), the tissue uptake at 1 h is 3.2 %ID/g and the tissue uptake at 18 h was 1 %ID/g.
As to `CC(=O)N(O)CCCCCNC(=O)CCC(=O)N(O)CCCCCNC(=O)CCC(=O)N(O)CCCCCNc1c(NCCN(CCNC(=O)CCCC(=O)NCc2ccc(C(=O)NCCCCC(NC(=O)NC(CCC(=O)O)C(=O)O)C(=O)O)cc2)CCNC(=O)CCCC(=O)NCc2ccc(C(=O)NCCCCC(NC(=O)NC(CCC(=O)O)C(=O)O)C(=O)O)cc2)c(=O)c1=O` (single isomer, unassigned) [^89Zr(4), metal not drawn], in data set [1] (iv), the tissue uptake at 1 h is 9.3 ± 0.33 %ID/g and the tissue uptake at 18 h was 3.7 ± 1.07 %ID/g. In data set [2], the “Tumour SUVmax 1 h pi” value is given as 3.2 ± 0.30, the “Tumour SUVmax 18 h pi” value was found to be 1.5 ± 0.18 and the “Tumour SUVmax Clearance %” value was determined as 54%.
For `CC(=O)N(O)CCCCCNC(=O)CCC(=O)N(O)CCCCCNC(=O)CCC(=O)N(O)CCCCCNc1c(NCc2ccc(C(=O)NCCCCC(NC(=O)NC(CCC(=O)O)C(=O)O)C(=O)O)cc2)c(=O)c1=O` (single isomer, unassigned) [^68Ga(1), metal not drawn], the tissue uptake at 1 h in data set [1] was found to be 6.5 ± 0.38 %ID/g. Also, the tissue uptake at 2.5 h in data set [1] (Tumour Uptake % ID/g 2.5 h pi) was 4.1 ± 0.51 %ID/g. In addition, in data set [3], the “Tumour Uptake % ID/g 1 h pi” value is given as 6.5±0.4 % ID/g and the “Tumour Uptake % ID/g 2.5 h pi” value worked out at 4.1±0.5 % ID/g. Moreover, in data set [2], the “Gall bladder uptake in PET images” value is listed as “high uptake”, the “Gut uptake in PET images” value is listed as “high uptake”, the “Kidney uptake in PET images” value is recorded as “high uptake” and the “LNCap tumour uptake in PET images” value is “moderate uptake”. In data set [2], the “Tumour SUVmax 1 h pi” value is 1.0 ± 0.02 and the “Tumour SUVmax 2 h pi” value turned out to be 0.8 ± 0.05.
In the case of `CC(=O)N(O)CCCCCNC(=O)CCC(=O)N(O)CCCCCNC(=O)CCC(=O)N(O)CCCCCNc1c(NCCNC(=O)CN(CCN(CC(=O)O)CC(=O)Nc2ccc(C(=O)NCCCCC(NC(=O)NC(CCC(=O)O)C(=O)O)C(=O)O)cc2)CC(=O)O)c(=O)c1=O` (stereo not shown) [^89Zr(2), metal not drawn], the “Tumour Uptake % ID/g 1 h pi” value in data set [3] (male, iv, 1 h) was 3.2 ± 0.72 % ID/g. The “Tumour Uptake % ID/g 18 h pi” value in data set [3] (male, iv, 18 h) was found to be 0.9 ± 0.09 % ID/g. Further, in data set [2], the “Tumour SUVmax 1 h pi” value worked out at 0.7 ± 0.03, the “Tumour SUVmax 18 h pi” value is given as 0.3 ± 0.01 and the “Tumour SUVmax Clearance %” value amounted to 57%.
For `CC(=O)N(O)CCCCCNC(=O)CCC(=O)N(O)CCCCCNC(=O)CCC(=O)N(O)CCCCCNc1c(N[C@H](Cc2ccccc2)C(=O)N[C@H]2CSSC[C@@H](C(=O)N[C@H](C(=O)O)[C@@H](C)O)NC(=O)[C@H]([C@@H](C)O)NC(=O)[C@H](CCCCN)NC(=O)[C@@H](Cc3c[nH]c4ccccc34)NC(=O)[C@H](Cc3ccc(O)cc3)NC2=O)c(=O)c1=O` [DFOSqTATE] (H-[X1]([Suc-X2])CY[dW]KTCT-OH; disulfide 2-7), the “Tumour SUVmax Clearance %” value in data set [4] turned out to be 58%. Moreover, the tissue uptake at 1 h in data set [5] (Tumour Uptake % ID/g 1 h pi) stood at 10.4 ± 0.5 %ID/g. In data set [5] (Tumour Uptake % ID/g 18 h pi), the tissue uptake at 18 h was 4.9 ± 0.8 %ID/g.
On to `CC(=O)N(O)CCCCCNC(=O)CCC(=O)N(O)CCCCCNC(=O)CCC(=O)N(O)CCCCCNc1c(NCCN(CCNC(=O)CCCC(=O)NCCCCC(NC(=O)NC(CCC(=O)O)C(=O)O)C(=O)O)CCNC(=O)CCCC(=O)NCCCCC(NC(=O)NC(CCC(=O)O)C(=O)O)C(=O)O)c(=O)c1=O` (single isomer, unassigned) [(3), DFOSq-bisPSMA ligand], for which, in data set [1] (iv), the tissue uptake at 1 h stood at 5.9 %ID/g and the tissue uptake at 18 h came to 2.5 %ID/g.
The like results for `CC(=O)N(O)CCCCCNC(=O)CCC(=O)N(O)CCCCCNC(=O)CCC(=O)N(O)CCCCCNc1c(NCCN(CCNC(=O)CCCC(=O)NCc2ccc(C(=O)NCCCCC(NC(=O)NC(CCC(=O)O)C(=O)O)C(=O)O)cc2)CCNC(=O)CCCC(=O)NCc2ccc(C(=O)NCCCCC(NC(=O)NC(CCC(=O)O)C(=O)O)C(=O)O)cc2)c(=O)c1=O` (stereo not shown) [(4), DFOSq-bisPhPSMA ligand] were, in that order, 9.3 %ID/g and 3.7 %ID/g.
With `CC(=O)N(O)CCCCCNC(=O)CCC(=O)N(O)CCCCCNC(=O)CCC(=O)N(O)CCCCCNc1c(NCc2ccc(C(=O)NCCCCC(NC(=O)NC(CCC(=O)O)C(=O)O)C(=O)O)cc2)c(=O)c1=O` (single isomer, unassigned) [^89Zr(1), metal not drawn], in data set [1] (iv), the tissue uptake at 1 h worked out at 4.6 ± 0.45 %ID/g and the tissue uptake at 18 h stood at 1.7 ± 0.18 %ID/g. In data set [2], the “Tumour SUVmax 1 h pi” value is 1.1 ± 0.12, the “Tumour SUVmax 18 h pi” value worked out at 0.4 ± 0.05 and the “Tumour SUVmax Clearance %” value is 63%.
